# Assay results taken from patent US20210002330A1 (ASOCIACI N CENTRO DE INVESTIGACI N COOPERATIVA EN …, published 2021).
# T1: fluorescein-labeled Hsp90 peptide (fluorescein label (position not given))
# T1 construct: also called target peptide; C-terminal peptide of Hsp90
# T1 peptide: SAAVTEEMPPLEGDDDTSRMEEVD
# B1: CC1-CTPR390 (designed binder)
# chain: AEAWCNLGCAYYKQGDYDEAIEYYQKALELDPRSACAWYCLGNAYYKQGDYDEAIEYYQKALELDPRSAEAWKNLGNAYYKQGDYQKAIEYYQKALELDPNNASAWYNLGNAYYKQGDYQKAIEYYQKALELDPNNAKAWYRRGNAYYKQGDYQKAIEDYQKALELDPNNAKAKQNLGNAKQKQG
# notes: CC1 Cys-clamp module (modules C and C1 fused) joined to the Hsp90 recognition domain CTPR390; Expressed in E. coli and the His tag was cleaved with TEV
# B2: CC1-CTPR390-AuNCs (designed binder)
# chain: B1 chain
# modifications: gold nanocluster (AuNC) stabilised on the protein (CC1 4-Cys clamp)
# notes: also called CC1-CTPR390-AuNCs complex
# Key:
# [1] = molecular target: T1, fluorescein-labeled Hsp90 peptide; assay: fluorescence anisotropy; protein titrated into 50 nM fluorescein-labeled Hsp90 peptide
# Protocol: (§1) In addition, the ligand binding activity of the tested proteins was studied by using CC1-CTPR390, CC1-TPR2A, CC1-TPR2A_T332R_D334K proteins and its target peptide. […] Fluorescence intensities were recorded in a Perkin Elmer Fluorimeter equipped with excitation and emission polarizers. Excitation was accomplished with a 5 nm slit width at 492 nm and the emission recorded at 516 nm with slit width of 5 nm. […]
# [2] = molecular target: T1, fluorescein-labeled Hsp90 peptide; assay: fluorescence anisotropy with fluorescein-labeled Hsp90 peptide; protein-stabilised gold nanocluster complex
# Protocol: as §1
# Finally, fluorescence anisotropy was used to monitor the interaction between the CC1-CTPR390-AuNCs, CC1-TPR2A-AuNCs and CC1-TPR2A_T332R_D334K-AuNCs complexes and a fluorescein-labeled Hsp90 peptide to determine the corresponding Kd value.
Binder,Kd [1] [µM],Kd [2] [µM]
B1,110,
B2,,~110
